# In article PMC4427162:
# Assays:
# [1] = target: Leishmania major tubulin-binding cofactor A (Leishmania major Friedlin); assay: SEC; calibrated Superdex 75 26/60 column, 50 mM Tris-HCl, 250 mM NaCl pH 7.5, no reducing agent
# [2] = target: Leishmania major tubulin-binding cofactor A (Leishmania major Friedlin); assay: MALDI-TOF mass spectrometry; sample that was used for crystallization (the approx. 27 kDa gel-filtration peak)
substance,measurement,setting,value
Leishmania major tubulin-binding cofactor A (natural protein),stoichiometry N,[1],2
same,stoichiometry N,[2],2
